Laboratory results from patent US20160237153A1 (DUKE UNIVERSITY, published 2016).

Experiments:
[1] = target: T1, human NaV1.7 expressed in HEK293 cells (human, UniProt Q15858 1-1988); experiment: fraction bound = 1 - I/I0 from whole-cell voltage clamp of hNaV1.7 in HEK293 cells, 30 ms pulses to -10 mV from -120 mV at 10 Hz; mean±S.E.M., n=10
T1 construct: Transiently transfected HEK293 cells, whole-cell patch clamp; also called hNaV1.7

[2] = target: T2, human NaV1.3 expressed in HEK293 cells (human, UniProt Q9NY46 1-2000); experiment: cell-based or functional assay
[3] = target: T3, rat NaV1.2 expressed in HEK293 cells (rat, UniProt P04775 1-2005); experiment: cell-based or functional assay
[4] = target: T4, rat NaV1.8 expressed in HEK293 cells (rat, UniProt Q62968 1-1956); experiment: cell-based or functional assay
[5] = target: T5, human NaV1.1 expressed in HEK293 cells (human, UniProt P35498 1-2009); experiment: cell-based or functional assay
[6] = target: T6, mouse NaV1.6 expressed in HEK293 cells (mouse, UniProt Q9WTU3 1-1978); experiment: cell-based or functional assay
T6 sequence (Q9WTU3 whole entry): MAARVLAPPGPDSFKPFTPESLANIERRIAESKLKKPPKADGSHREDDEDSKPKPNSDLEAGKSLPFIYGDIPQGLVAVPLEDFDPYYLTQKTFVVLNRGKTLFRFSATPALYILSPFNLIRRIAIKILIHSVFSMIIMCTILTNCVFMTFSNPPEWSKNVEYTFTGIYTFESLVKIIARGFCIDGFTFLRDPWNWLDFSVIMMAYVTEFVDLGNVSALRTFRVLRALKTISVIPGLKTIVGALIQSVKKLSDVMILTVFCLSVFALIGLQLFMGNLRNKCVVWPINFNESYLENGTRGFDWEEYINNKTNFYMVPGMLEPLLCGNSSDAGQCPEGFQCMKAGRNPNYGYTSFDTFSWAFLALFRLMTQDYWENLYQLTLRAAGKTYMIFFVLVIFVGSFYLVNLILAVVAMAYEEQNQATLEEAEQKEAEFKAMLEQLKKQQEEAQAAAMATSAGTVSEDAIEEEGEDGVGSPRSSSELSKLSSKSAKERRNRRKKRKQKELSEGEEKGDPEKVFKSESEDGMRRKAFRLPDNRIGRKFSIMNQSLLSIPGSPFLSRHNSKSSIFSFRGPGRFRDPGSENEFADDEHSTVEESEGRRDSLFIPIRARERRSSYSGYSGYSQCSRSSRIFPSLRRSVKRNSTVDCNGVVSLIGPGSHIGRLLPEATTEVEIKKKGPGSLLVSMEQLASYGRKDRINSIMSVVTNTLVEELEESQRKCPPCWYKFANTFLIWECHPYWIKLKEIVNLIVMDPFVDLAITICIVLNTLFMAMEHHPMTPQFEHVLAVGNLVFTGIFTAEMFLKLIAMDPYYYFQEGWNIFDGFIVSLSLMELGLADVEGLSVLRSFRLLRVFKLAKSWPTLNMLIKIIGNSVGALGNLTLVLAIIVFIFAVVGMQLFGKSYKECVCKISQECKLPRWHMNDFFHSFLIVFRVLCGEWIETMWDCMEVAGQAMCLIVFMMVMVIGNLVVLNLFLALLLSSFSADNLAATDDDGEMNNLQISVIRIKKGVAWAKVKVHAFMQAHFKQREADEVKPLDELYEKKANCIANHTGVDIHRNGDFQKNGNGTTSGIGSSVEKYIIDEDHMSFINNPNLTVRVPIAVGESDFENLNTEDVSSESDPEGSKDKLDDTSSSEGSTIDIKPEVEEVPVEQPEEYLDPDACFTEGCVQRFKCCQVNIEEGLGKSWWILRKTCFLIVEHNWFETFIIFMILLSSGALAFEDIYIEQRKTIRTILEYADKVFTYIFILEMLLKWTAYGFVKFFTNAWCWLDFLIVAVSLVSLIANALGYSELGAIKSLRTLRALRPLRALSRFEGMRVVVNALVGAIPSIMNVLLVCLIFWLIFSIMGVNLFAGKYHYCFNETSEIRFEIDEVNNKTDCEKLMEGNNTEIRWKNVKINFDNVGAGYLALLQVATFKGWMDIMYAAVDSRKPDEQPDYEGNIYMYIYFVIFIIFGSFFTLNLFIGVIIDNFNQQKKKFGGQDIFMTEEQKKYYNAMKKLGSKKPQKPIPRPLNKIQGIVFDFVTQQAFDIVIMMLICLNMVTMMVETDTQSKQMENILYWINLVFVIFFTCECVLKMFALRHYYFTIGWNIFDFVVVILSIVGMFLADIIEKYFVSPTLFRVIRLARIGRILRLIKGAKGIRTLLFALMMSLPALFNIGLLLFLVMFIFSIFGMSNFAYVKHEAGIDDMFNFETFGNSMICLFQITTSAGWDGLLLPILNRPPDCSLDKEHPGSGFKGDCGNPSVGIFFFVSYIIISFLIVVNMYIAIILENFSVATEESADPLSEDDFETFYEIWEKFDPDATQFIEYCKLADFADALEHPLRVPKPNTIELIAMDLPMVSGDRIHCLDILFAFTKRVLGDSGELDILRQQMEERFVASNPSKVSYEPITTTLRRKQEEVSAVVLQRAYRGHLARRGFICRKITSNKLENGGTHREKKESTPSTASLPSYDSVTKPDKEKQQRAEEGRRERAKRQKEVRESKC

[7] = target: T7, mouse NaV1.5 expressed in HEK293 cells (mouse, UniProt Q9JJV9 1-2019); experiment: cell-based or functional assay
T7 sequence (Q9JJV9 whole entry): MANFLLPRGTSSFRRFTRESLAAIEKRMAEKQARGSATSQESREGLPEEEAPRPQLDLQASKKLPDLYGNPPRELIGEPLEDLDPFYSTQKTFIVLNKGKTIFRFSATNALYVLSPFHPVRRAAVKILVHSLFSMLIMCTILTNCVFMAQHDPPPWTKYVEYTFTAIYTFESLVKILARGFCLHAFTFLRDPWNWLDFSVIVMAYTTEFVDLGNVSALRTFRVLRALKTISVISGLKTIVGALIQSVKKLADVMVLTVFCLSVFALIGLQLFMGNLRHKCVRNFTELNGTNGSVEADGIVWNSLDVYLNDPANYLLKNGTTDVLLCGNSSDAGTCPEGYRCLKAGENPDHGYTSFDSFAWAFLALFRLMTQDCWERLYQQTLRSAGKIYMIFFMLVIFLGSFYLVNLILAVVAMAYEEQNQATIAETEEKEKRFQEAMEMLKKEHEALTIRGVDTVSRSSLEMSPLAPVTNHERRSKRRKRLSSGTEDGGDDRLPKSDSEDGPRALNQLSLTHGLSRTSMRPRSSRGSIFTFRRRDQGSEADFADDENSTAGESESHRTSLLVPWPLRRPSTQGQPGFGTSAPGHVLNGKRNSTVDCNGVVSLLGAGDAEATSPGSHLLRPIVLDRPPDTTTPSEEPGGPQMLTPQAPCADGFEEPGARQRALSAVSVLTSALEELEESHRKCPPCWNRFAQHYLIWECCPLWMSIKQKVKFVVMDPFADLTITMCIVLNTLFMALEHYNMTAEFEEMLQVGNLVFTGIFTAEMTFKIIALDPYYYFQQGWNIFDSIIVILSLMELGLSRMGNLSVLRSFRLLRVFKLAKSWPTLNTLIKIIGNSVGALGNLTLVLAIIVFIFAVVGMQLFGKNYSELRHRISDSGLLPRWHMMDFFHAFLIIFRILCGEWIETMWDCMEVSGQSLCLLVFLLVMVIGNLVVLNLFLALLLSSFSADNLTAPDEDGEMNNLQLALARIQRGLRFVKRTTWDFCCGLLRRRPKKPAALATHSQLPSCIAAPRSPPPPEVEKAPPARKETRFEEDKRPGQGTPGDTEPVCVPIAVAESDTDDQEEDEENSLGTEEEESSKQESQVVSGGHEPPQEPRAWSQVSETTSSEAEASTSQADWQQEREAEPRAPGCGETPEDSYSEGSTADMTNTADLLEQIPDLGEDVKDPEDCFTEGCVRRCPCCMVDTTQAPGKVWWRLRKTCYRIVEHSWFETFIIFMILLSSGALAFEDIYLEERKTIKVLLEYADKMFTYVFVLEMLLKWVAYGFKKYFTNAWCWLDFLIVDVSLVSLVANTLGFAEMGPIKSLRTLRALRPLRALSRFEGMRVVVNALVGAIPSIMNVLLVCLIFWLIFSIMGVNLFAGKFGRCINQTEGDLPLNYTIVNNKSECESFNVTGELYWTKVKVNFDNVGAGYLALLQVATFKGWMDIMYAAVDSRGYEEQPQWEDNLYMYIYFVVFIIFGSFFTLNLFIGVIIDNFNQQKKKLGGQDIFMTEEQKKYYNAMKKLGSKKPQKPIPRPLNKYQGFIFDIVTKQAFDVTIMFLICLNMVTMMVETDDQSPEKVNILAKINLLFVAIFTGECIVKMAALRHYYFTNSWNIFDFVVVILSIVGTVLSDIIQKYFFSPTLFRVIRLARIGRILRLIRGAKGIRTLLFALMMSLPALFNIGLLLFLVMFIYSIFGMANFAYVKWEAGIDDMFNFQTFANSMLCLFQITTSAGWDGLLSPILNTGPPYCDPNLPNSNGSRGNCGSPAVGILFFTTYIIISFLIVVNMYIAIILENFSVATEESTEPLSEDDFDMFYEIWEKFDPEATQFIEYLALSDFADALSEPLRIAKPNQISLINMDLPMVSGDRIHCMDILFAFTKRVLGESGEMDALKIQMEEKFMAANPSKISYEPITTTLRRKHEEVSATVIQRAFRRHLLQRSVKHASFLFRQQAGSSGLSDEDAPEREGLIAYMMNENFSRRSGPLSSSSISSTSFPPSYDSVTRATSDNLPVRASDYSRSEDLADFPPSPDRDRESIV

[8] = target: T1, human NaV1.7 expressed in HEK293 cells; experiment: cell-based or functional assay
[9] = target: T8, human NaV1.4 expressed in HEK293 cells (human, UniProt P35499 1-1836); experiment: cell-based or functional assay
[10] = target: T1, human NaV1.7 expressed in HEK293 cells; experiment: apparent KD from whole-cell voltage clamp of hNaV1.7 in HEK293 cells at 10 Hz; fraction bound Y=1-I/I0 fitted to a one-site binding equation; apparent KD from inhibition of peak sodium current (Y=1-I/IO), one-site fit, n=10
[11] = target: T2, human NaV1.3 expressed in HEK293 cells; experiment: cell-based or functional assay; remark: listed apart in the source
[12] = target: T3, rat NaV1.2 expressed in HEK293 cells; experiment: cell-based or functional assay; remark: listed apart in the source
[13] = target: T4, rat NaV1.8 expressed in HEK293 cells; experiment: cell-based or functional assay; remark: listed apart in the source
[14] = target: T5, human NaV1.1 expressed in HEK293 cells; experiment: cell-based or functional assay; remark: listed apart in the source
[15] = target: T6, mouse NaV1.6 expressed in HEK293 cells; experiment: cell-based or functional assay; remark: listed apart in the source
[16] = target: T7, mouse NaV1.5 expressed in HEK293 cells; experiment: cell-based or functional assay; remark: listed apart in the source
[17] = target: T1, human NaV1.7 expressed in HEK293 cells; experiment: cell-based or functional assay; remark: listed apart in the source
[18] = target: T8, human NaV1.4 expressed in HEK293 cells; experiment: cell-based or functional assay; remark: listed apart in the source

B1: 1E16 monoclonal antibody (antibody, IgG1, V domains shown)
VH: QGQMQQSGAELVKPGASVKLSCKTSGFTFSSSYISWLKQKPGQSLEWIAWIYAGTGGTSYNQKFTGKAQLTVDTSSSTAYMQFSSLTTEDSAIYYCARQDGNYRYWYFDVWGAGTTVTVSS
VL: ETTVTQSPASLSMAIGEKVTIRCITSTDIDDDMNWYQQKPGEPPKLLISEGNTLRPGVPSRFSSSGYGTDFVFTIENMLSEDVADYYCLQSDNLPLTFGGGTKLEIK
notes: also called 1E16 mAb; 1E16 Ab
In the case of B1, the “EC50 (read off the curve)” value [1] is reported as ~0.02 µM, the “IC50, sodium current at 2 Hz” value [2] is reported as > 5 µM and the “IC50, sodium current at 2 Hz” value [3] is reported as > 5 µM. For the same binder, the “IC50, sodium current at 2 Hz” value [4] was > 5 µM, the “IC50, sodium current at 2 Hz” value [5] was > 5 µM and the “fold decrease in efficacy relative to NaV1.7” value [6] was ~2 fold. The “fold decrease in potency relative to NaV1.7” value [6] was ~200 fold, the “IC50, sodium current at 2 Hz” value [7] was > 5 µM and the “IC50 of inhibition of human NaV1.7 currents at 0.1 Hz” value [8] was 0.107 µM. The “IC50 of inhibition of human NaV1.7 currents at 10 Hz” value [8] was 0.0167 µM, the “IC50, sodium current at 2 Hz” value [9] was > 5 µM and the Kd [10] was 0.0229 µM. The “IC50 (µM), sodium current at 2 Hz” value [11] was 8.7 µM, the “Maximum inhibition (%)” value [11] was 16.2% and the “Selectivity for Nav1.7” value [11] was 1520 fold. The “IC50 (µM), sodium current at 2 Hz” value [12] was 9 µM, the “Maximum inhibition (%)” value [12] was 18.7% and the “Selectivity for Nav1.7” value [12] was 1360 fold. The “IC50 (µM), sodium current at 2 Hz” value [13] was 5.2 µM, the “Maximum inhibition (%)” value [13] was 22.1% and the “Selectivity for Nav1.7” value [13] was 666 fold. The “IC50 (µM), sodium current at 2 Hz” value [14] was 6.3 µM, the “Maximum inhibition (%)” value [14] was 20.7% and the “Selectivity for Nav1.7” value [14] was 862 fold. For the same binder, the “IC50 (µM), sodium current at 2 Hz” value [15] was 6.3 µM, the “Maximum inhibition (%)” value [15] was 44.2% and the “Selectivity for Nav1.7” value [15] was 404 fold. For the same binder, the “IC50 (µM), sodium current at 2 Hz” value [16] was 5.6 µM, the “Maximum inhibition (%)” value [16] was 19.1% and the “Selectivity for Nav1.7” value [16] was 830 fold. The “IC50 (µM), sodium current at 2 Hz” value [17] was 0.0307 µM, the “Maximum inhibition (%)” value [17] was 86.9% and the “Selectivity for Nav1.7” value [17] was 1 fold. The “IC50 (µM), sodium current at 2 Hz” value [18] was 7.9 µM, the “Maximum inhibition (%)” value [18] was 21.5% and the “Selectivity for Nav1.7” value [18] was 1040 fold.
